Measurements: the DeepSol protein solubility set

Assay: soluble on expression in E. coli; label from the status in PepcDB or PDB records

Sequence	soluble on expression in E. coli
MGGWEEREIRGHSLGHWLSAAAAMYETTGDKALLERIDRAVQELATIQDDVGYVGGVKRAHFDEMFSGEFQVGHFNIAGTWVPWYNLHKLFAGLIDVHQLTGHSLALTVVTKLADWAKKGTDQLTDDQFQRMLICEHGGMNEAMADLYTLTGHKDYLQLAIRFCHWAVLEPLANGIDELEGKHANTQIPKVIGAAKLFEITGDDTYRAIAEFFWRQVTNDRSYIIGGNSNSEHFGPANKETLGVETAETCNTYNMLKLTEHLFRWNRSSQLMDYYEKALYNHILASQDPDSGMKTYFVSLQPGHFKVYSSLEESFWCCFGTGLENPARYTRTIYDRDDRHIYVNLFMASEIHLKDLQVQIRQETNFPETDRTKLTFVKADGVSIKLHIRVPEWVAGPVTARINGKETFSESGADYLTIEREWQKGDEIEVHLPMELRIYEAKDDSHKVGIMYGPIVLAGTFGKDHFPETDIVPNHLSLHNHPLIDVPTLVATKKTPDQWIHPVEGRSLTFRTAAIGQPGNVQITLIPFYALHHERYTVYWNLMSEVEYEAFKARKEVESDQLQARTVDAVQPGEQQPEVEHQLKANHSETGYLNIMQKRWRDSRGEDGFFSYVMKVKPNQQMSLFVTYYGGDHGLFVDGKWCDRSFRILIDDEVIKEEQLLGKNPGETLDVYYPIPLALTEGKEEVVVTFASKEGTVAGGVYGVRMLCNLEHHHHHH	not soluble
MSLFVSLSEKKKFLTWLVNTAPFGRREVLWILNYLLTHDAILNNVHFVENVEKTDRGIRVVADGLGKEPLLLFIQAQEFTDPEQIFHEIRMNWRKALYLECVFPEAWQTSQYLSVLEDNPFAPWNEQVDQEVARAIDQYFKQEEQTQRMALLKAQIDDALETGNKEAFLELSDELNRLKQQEGHHHHHH	soluble
MAADYDKLFRPHEGMEAPDDMAAQPFFDPSASFPPAPASANLPKPNGQTPPPTSDDLSERFVSAPPPPPPPPPPPPPTPMPIAAGEPPSPEPAASKPPTPPMPIAGPEPAPPKPPTPPMPIAGPEPAPPKPPTPPMPIAGPAPTPTESQLAPPRPPTPQTPTGAPQQPESPAPHVPSHGPHQPRRTAPAPPWAKMPIGEPPPAPSRPSASPAEPPTRPAPQHSRRARRGHRYRTDTERNVGKVATGPSIQARLRAEEASGAQLAPGTEPSPAPLGQPRSYLAPPTRPAPTEPPPSPSPQRNSGRRAERRVHPDLAAQHAAAQPDSITAATTGGRRRKRAAPDLDATQKSLRPAAKGPKVKKVKPQKPKATKPPKVVSQRGWRHWVHALTRINLGLSPDEKYELDLHARVRRNPRGSYQIAVVGLKGGAGKTTLTAALGSTLAQVRADRILALDADPGAGNLADRVGRQSGATIADVLAEKELSHYNDIRAHTSVNAVNLEVLPAPEYSSAQRALSDADWHFIADPASRFYNLVLADCGAGFFDPLTRGVLSTVSGVVVVASVSIDGAQQASVALDWLRNNGYQDLASRACVVINHIMPGEPNVAVKDLVRHFEQQVQPGRVVVMPWDRHIAAGTEISLDLLDPIYKRKVLELAAALSDDFERAGRR	soluble
MPQTDKQVCIPPELPELLKQFTKDAIRTQPPDLIQWAAEYFGAMSRGEIPPVRERSEQIPLSNWAELTPELLKVLHSRVAGRLIIHADELAQMWKVLNLPTDLFNSVMNVGRFTEEIEWLKFLALACSSLGVTIAKTLKIVCEVLSSDHDGGPPRIPFSTFQFLYTYIAEVDGEISSSHVSRMLNYIEQEVIGPDGLIKVNDFTQNPRVRLE	not soluble
MGSDKIHHHHHHMQIVQIEQAPKDYISDIKIIPSKSLLLITSWDGSLTVYKFDIQAKNVDLLQSLRYKHPLLCCNFIDNTDLQIYVGTVQGEILKVDLIGSPSFQALTNNEANLGICRICKYGDDKLIAASWDGLIEVIDPRNYGDGVIAVKNLNSNNTKVKNKIFTMDTNSSRLIVGMNNSQVQWFRLPLCEDDNGTIEESGLKYQIRDVALLPKEQEGYACSSIDGRVAVEFFDDQGDDYNSSKRFAFRCHRLNLKDTNLAYPVNSIEFSPRHKFLYTAGSDGIISCWNLQTRKKIKNFAKFNEDSVVKIACSDNILCLATSDDTFKTNAAIDQTIELNASSIYIIFDYEN	not soluble
SESSGGPTSSLAGTSRNTHVEDDDVVFIESVQPPICAPAIPNERNFVFASSKHENPPGTDSTISPSWRDLTSQKGNLCETIVIDDEGDTDTNGGEEKNPTDFIEWGPNGNKSSTKNVDFPIASLSRSKTKTAVGPFNPGRIDVTDAFQNGRFAVHHNPDSWISQSASFPRNQKQQGVDSLSPVASLPKQIFQPSNQQPTKPVKVTCANCKKPLQKGQTAYQRKGSAHLFCSTTCLSSFSHKRTRKTRNVMCKK	soluble
GMSESPTAGRASLAPLREFITGLSALLDEQPGEARILREGGALLARLVARDDWLPDAFAQPHPEYYQQMLLHCDSAERFSIVSFVWGPGQRTPIHDHTVWGLIGMLRGAEYSQPFVLDGSGRPVLHGEPTRLEPGHVEAVSPTVGDIHRVHNAYDDRVSISIHVYGANIGGVRRSVYTEAGERKPFISGYSNPYLPNPWDRSKDSAAS	soluble
MVSQLACIIWTGIIAGRTATLTEGDNMKLPKWLEEKYDLLWDKFEDREFRSTEALEILGKEHLIDEKSLSAAISEMRKKGWIETRKDPDDERRRIYMLRPKSEIIQDYLTLKDDKLGRADIERILKGAADLIRTRVDYKFILVLLFMKQMSDKWMMEYQKAYEDAIKEYGLSEEEARLEARNSAYHDLDIKEEYLWDNIRKDVENLPIKFAGALKNLAELNPAFKDVVDAFDFVEFTQSQENREILRQLVELFSEKKLTNVDPDILGDAYEWILRYFAPTKAKEGEVYTPREVIRLLVEILDPKPGESVYDPASASNGMLIISHKYVKETYGEAERLFLYGQEVNRKTMALGSMNMYIHDIKDHHIAHGDTLLYPKFKESDGIMRFDVVIANPPWNQDGYGEDTLKKGDYWRERFRYGFVNKQSADWAWIQHMIASAKDDGRIGVVIDNGCLFRGGREKSIRSAVLEDDLIEAVILLPEKLFYNTGAPGAIIILNKDKDEERRGKVLFINAGEEYEKHPEVRKLNILSDGNIERILEAYREFQGDDGFSRVVDLDEIRENDYNLNVPLYAFPEEELEDIDVAGEWMRLSEIEEELAEVDERIRGYLDELGYMGVKM	soluble
MAGVSTTQSGAIGVDRTQYMSSLVPEQALVQEAGQQYAEIVQEARAKGLLDRDPAQLSRVRAISQRLIAQTGVFRADAANWPWEVHVLSVDEVNAWCMPGGKIAVYTGLLAHIKPTDDELAAVLGHEIAHALREHARERVSQQMATSIGLSVLSMATGSPGASDLGGKLTEVMFTLPNSRTHETEADRMGVELAARAGFDPRAAVTLWQKMGAADGNAPPEFLSTHPSASTRIGELQQALQKVLPLYEQARGQAAKLEHHHHHH	not soluble
WGYQTDGRFQNFDEINTYPIQNGDNGNSKELPGDYILKDVNGDGVVNDLDKTPLFWSGSPLIHYGFNVEASWKNFDFYALFQGSALYTVQFDEVYAKMLCFKGGNTPEYFYDRWHLSDPYDANSEWIPGEWPAIRLEQDMGSFYTRDSQIWRKNASYLRLKTIEIGYTFSPRLMHKLGIGSLRIYANGNNLFTVCDPFVKAFDPEKIEGDYSAGLNYPLNKSFNFGLTLNF	not soluble
MKLKLYLIPLLASGIILSACSSTTSQVISSLSSAQKYFEANKGELNKNNVINILKDGYNSDPNKTVNALLAGWKYTLMDQKLLENNLDPSRFKNTFGPNKNKDDVTPNISEKGLFLNETFTGLGSQIAEVFNVQKQIVSGFSYSWTSPKSFKVNIHIKMEGMINEKSKETIKSFLSNKDSNGSNSVEESEYTGDKAKFTADFIFSYTPPTGGTRSLTDKSFDVITNMINFPADVKIDVNTSHNKLNELLEKNDQVKRMKSRTFNGRNIDLLPFFYYALL	soluble
MSLGLDNLYRVLDANVNRTSEGLRVLEDLARFCYNDRLLSKRIKELRHSVRKNIAGLVPNLISSRDSVNDVGLKTSMEMDIDRKASLLDLARANFKRVQEALRTVEESLKVLNENDLSKFYESCRFETYSIEKEYFKVLTFENKKGRLNEIITGLYCITSEEHSKGRSNIEVVEKMIKAGVKIIQYREKKKSLLEKYNECKKIREMTLDSGVTFIVNDNIDIAMMVKADGVHIGQDDLPIEKVRELVGDEMIIGISTHSPTQAEDAVRRGADYIGVGPLYRTYTKEDVCEPVGLEYLDYVVKNINIPYVAIGGIKEHNMDEVLARGARCIAMVTEIVGADDIEEKISKVKSKFSRGEGHHHHHH	soluble
MSLRERVKAHPKPADEQLLTRIRDHSISMLLNFLNSMFDGVDDSFFELANHAHTNNEQNRYFEAMREIRIKRKGIENHFQQELARLFNQPPSQHKTSESLSDNVDVDVLSLVQNDALEESVAINSMISKARANFSGSLLQFQTRVSSVYGETNEENAVNPLDPEHICKAFSDACIGLDIEIKEKLIVYKQFDRYVMGNLVECLEEANKIMIQAGVMPNLKYTAKKSRVTPRSTSDVSARPLEAQSDANGYDGAGDVFSQVQELLSALRNTASNPEQQQGDPNTGAGGRQAPPPGNVQFIADADLLSILSRLQHSVRTENLAEGPVVALDLRTAVQGLLSEESQKSGKATALDQIDEDLINLVSMLFEFILDDYNLSAPIQVLISRLQIPILKVAIRDKSFFSKPSHPARKLLNALAKAGIGWSDASEKKRDKLYEQIHRAVQRILEEFNGESELFEEIYQEFSQYLSREERKAKLVEQRTKEAEIGRVKSHKAHQVVEQILSEKIAAQPLPPVAVELLRGGWSRVMFLAYLKEDTEHRLNQCTKVVDELTWCLQPHAEVEARQRWVKVVPQLLKNLKAGLKEVSYNSAKLEHMLGELKKALTETFKQQSITSAQNDAPKPPAPVAAVIEQKLTPAIKTAVERQSEYEDAALAEYLTKIDEMECGAWIEFSLVNGTRFRCKLSTKIEDSDTYIFVNRLGLKVVEKTRGELAHELRKGRIKALEEGLLFDRAMNAVIGNLRKMSGEGHHHHHH	soluble
MDYFPVISVDLQSGRRVVSVEYFRGDGPPRIPYSMVGPCCVFLMHHRPSHEVRLRFSDFYNVGEFPYRVGLGDFASNVAPPPAKPFQRLIDLIGHMTLSDFTRFPNLKEAISWPLGEPSLAFFDLSSTRVHRNDDIRRDQIATLAMRSCKITNDLEDSFVGLHRMIATEAILRGIDLCLLPGFDLMYEVAHVQCVRLLQAAKEDISNAVVPNSALIVLMEESLMLRSSLPSMMGRNNWIPVIPPIPDVEMESEEESDDDGFVEVD	not soluble
MGSDKIHHHHHHMEIAVLGGGNGSTAAAVDLTAQGHNIRFWRRNASAQAELKARGNVITLKDFEGARPIRITMVTDDIGEAIRGAELIVCPTPATAQSDIAAAMAPHLADGQVVFLPPGSFGSWIMADIVRKAGNHADVSWAETGTLPYLTRLHGADTVAITTRATRLPTGVYPLRNAEHAHSVLARAYPAVEPAGDALSGALMNAGPIIHPPLITMNAGPIEHFDHWDIHNEGTQPAIRRVTTRLDAERMAVREALGYGAPHFPLADHYETSDWMYGNLAHDKLVDSGDWREHLVLTEHRYMREDVAVGLALLVSVADWAGVPAPTATGLLALGSAICDDDFRQSGRTLENLGLADMDRAALQTMLRDGA	not soluble
MDQNTTPAPGLRETKKRETRQLISDHATRLFIERGFEHTTIAEIADAARVAKKTVTNYFPRKEDLALDHQDEFVAALAATVTARGAGETPLTALRHAFLAAVAAQDPVAGFAGQAFTRMIADSPTLTACLRGLHDRREEALTAALAGTTDTPPDDITPRTAAALLGGVHRVLFNRIQELTLAGRATPEIAEVLAREAPRAFDLLTPALAEYGRRP	not soluble
